# Substitutions are numbered along the chain they refer to.
# T1: WT-sFasL (Homo sapiens, UniProt P48023)
# T1 construct: made in house
# T1 sequence (P48023 103-281): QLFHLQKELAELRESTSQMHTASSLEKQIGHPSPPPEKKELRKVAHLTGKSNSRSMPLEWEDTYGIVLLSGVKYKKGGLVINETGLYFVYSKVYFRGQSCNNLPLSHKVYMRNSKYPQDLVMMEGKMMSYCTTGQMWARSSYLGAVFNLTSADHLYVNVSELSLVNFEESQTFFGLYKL
# B1: mut-sFasL: mutant sFasL molecule in which 8 charged amino acids in the 26 amino acid stalk region were changed to alanine (protein)
# chain: T1 sequence (P48023 103-281) with H4A, K7A, E8A, E11A, R13A, E14A, H20A, E26A
# Target: T1, WT-sFasL
# Test: Attenuation of WT-sFasL-induced caspase 3/7 activity in Jurkat cells by molar mixtures of WT and mut-sFasL
# Type: cell-based
# Details: serial dilutions of mut sFasL
# Experimental: FIGS. 2A-D show the mut-sFasL has inhibitory properties. Highly Fas-sensitive Jurkat cells (FIG. 2A), primary human lung small airway epithelial cells (SAEC, FIG. 2B) or murine lung epithelial cells (LA4, FIG. 2D) were incubated with serial dilutions of mutated FasL, (mut sFasL). […] As a confirmatory test, the experiment was repeated using SAEC and an annexin-V translocation assay (FIG. 2C). WT=wild type (no mutant). […] Each dot represents individual data; lines represent means±SD. *=P<0.05; **=P<0.01, ***P<0.001 when compared to WT. One way ANOVA with SIdak's post hoc analysis.
# Methods. Cells and cell culture. To test Fas responses in vitro, the highly-Fas sensitive cell line, Jurak, was used. […]
# Measurements of apoptotic cascade activation. Apoptotic cascade activation was assessed by determining caspase 3/7 activity and Annexin V externalization. Caspase-3/7 activity was measured using a commercial substrate (Caspase-Glo 3/7 Assay, Promega, Madison, Wis., Cat #G8090) following manufacturer's instructions. Annexin V was measured with a luminescent commercial assay that allows for measurement of annexin V externalization in adherent cells (RealTime-Glo Annexin V assay, Promega, Madison, Wis., Cat #JA1011). Luminescence was measured with a Synergy H4 Microplate Reader (BioTek, Winooski, Vt.). […]
molecule,measurement,value
B1,inhibition of wild type sFasL activity (caspase 3/7),dose-dependent inhibition of wild type sFasL activity
